The target of the assay is T1, dipeptidyl peptidase 4 (DPP-4) (UniProt P27487 39-766, limits assumed).
T1 construct: also called adenosine deaminase complexing protein 2; CD26
The assay can be described thus: inhibition of DPP-4 cleavage of the chromogenic substrate Gly-Pro-pNA.

T1 sequence (P27487 39-766 limits assumed): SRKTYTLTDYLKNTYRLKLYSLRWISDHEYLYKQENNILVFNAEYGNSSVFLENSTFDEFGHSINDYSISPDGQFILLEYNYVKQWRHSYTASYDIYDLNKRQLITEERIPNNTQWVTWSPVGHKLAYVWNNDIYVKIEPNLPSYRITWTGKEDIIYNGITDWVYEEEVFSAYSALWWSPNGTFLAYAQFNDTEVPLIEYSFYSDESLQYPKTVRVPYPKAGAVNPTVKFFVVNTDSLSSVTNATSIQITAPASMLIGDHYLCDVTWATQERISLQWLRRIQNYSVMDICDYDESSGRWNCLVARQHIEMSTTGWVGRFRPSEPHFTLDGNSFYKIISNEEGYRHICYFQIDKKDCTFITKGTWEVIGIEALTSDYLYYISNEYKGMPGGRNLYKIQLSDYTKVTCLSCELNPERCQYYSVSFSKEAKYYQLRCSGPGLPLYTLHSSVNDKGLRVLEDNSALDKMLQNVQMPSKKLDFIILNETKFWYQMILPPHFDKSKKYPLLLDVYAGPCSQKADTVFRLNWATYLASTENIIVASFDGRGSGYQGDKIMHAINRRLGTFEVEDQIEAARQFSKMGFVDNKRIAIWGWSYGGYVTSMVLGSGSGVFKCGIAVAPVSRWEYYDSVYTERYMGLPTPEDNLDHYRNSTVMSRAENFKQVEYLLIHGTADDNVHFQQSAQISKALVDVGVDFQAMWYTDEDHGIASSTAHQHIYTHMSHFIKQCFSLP

B1: thio GLP-1 (GLP-1 7-36 with a thioamide at the Ala8-Glu9 scissile bond) (peptide)
peptide: HXEGTFTSDVSSYLEGQAAKEFIAWLVKGR
modifications: thioamide (C=S in place of C=O) at Ala8 (second residue of the peptide), i.e. the bond between Ala8 and Glu9; printed HA*EGTF...
notes: C-terminal amide is called optional; also called GLP-1-A^s8; thioamide-modified GLP-1
Turning to B1, the binding result is on record as “no binding (tested: 100 µM)”.

Values taken from patent US20240239860A1 (University of Pennsylvania, published 2024).
